According to paper PMC7689490 (Nature Communications, 2020):
[ ]: non-standard residue; d: D form. Fluos = fluorescein label; Ahx = NCCCCCC(=O)O

Target: T1, macrophage migration-inhibitory factor (MIF), recombinant human, unlabelled (human, UniProt P14174 1-115)
T1 construct: human MIF; For some biophysical methods a 90-95% pure preparation was used; also called WT-MIF; human MIF
T1 sequence (looked up): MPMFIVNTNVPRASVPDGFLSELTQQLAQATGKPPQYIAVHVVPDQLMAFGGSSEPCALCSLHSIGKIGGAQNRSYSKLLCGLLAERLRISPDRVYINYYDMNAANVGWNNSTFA
Assay: other fluorescence titration; Fluos-labelled CXCR4 ectodomain peptide at 5 nM titrated with unlabelled MIF, MIF(10xAla), CXCL12 or MIF peptide fragments; 10 mM sodium phosphate, pH 7.4, 1% HFIP; emission at 522 nm; apparent KD, 1/1 binding model
Conditions: both partners purified

Kd: > 1000 nM
B1: Fluos-[A^102, A^103, A^104, A^107, A^189, A^190, A^195]-msR4M-L1 (designed binder)
chain: Fluos-DAVANAAAGNALCK[Ahx][Ado]DRYICDRAAPNDLAV-NH2
modifications: cysteine pairing not given here
notes: The functional assays used the unlabelled peptide; also called Fluos-msR4M-L1(7xAla); source: synthetic peptide (Fmoc SPPS on Rink amide MBHA resin, RP-HPLC purified)
